{"source": "paper PMC3212078", "about": "“Atomic Force Microscopy Study of Protein–Protein Interactions in the Cytochrome CYP11A1 (P450scc)-Containing Steroid Hydroxylase System” (Nanoscale Research Letters, 2010)", "binders": {"B1": {"name": "adrenodoxin (natural protein, UniProt P00257 59-186, looked up)", "chain": "SSSEDKITVHFINRDGETLTTKGKIGDSLLDVVVQNNLDIDGFGACEGTLACSTCHLIFEQHIFEKLEAITDEENDMLDLAYGLTDRSRLGCQICLTKAMDNMTVRVPDAVSDARESIDMGMNSSKIE", "notes": "adrenodoxin (Ad), recombinant; source: E. coli BL21DE3, purified after sonification"}}, "key": {"[1]": {"target": "T1, cytochrome CYP11A1 (P450scc) (bovine, UniProt P00189 40-520)", "T1 construct": "The same protein was used either untreated (oligomeric, non-monomerized) or after incubation with 4-12% Emulgen 913 (monomerized); the assays tell the two states apart; also called CYP11A1mon; monomerized CYP11A1; source: isolated from bovine adrenal glands", "T1 sequence (looked up)": "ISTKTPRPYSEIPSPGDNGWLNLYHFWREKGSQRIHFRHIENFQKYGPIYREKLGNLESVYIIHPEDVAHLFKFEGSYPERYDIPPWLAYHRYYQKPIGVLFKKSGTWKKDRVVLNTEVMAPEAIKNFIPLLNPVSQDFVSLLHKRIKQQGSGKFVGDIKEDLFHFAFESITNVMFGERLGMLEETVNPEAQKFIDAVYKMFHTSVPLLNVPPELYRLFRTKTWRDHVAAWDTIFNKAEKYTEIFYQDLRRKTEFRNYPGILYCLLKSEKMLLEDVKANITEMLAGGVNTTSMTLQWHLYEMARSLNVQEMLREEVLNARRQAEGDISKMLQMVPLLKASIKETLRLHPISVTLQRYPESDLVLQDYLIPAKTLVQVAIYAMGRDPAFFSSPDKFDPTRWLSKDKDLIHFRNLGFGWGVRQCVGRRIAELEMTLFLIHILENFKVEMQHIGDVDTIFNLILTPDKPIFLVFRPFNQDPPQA", "assay": "SPR; Biacore 3000; about 400 RU Ad coupled by EDC/NHS to a CM5 chip; oligomeric (non-monomerized) CYP11A1 injected at 1-100 nM; 50 mM potassium phosphate pH 7.4 with 1% Emulgen 913; 1:1 Langmuir model", "conditions": "both partners purified"}, "[2]": {"target": "T1, cytochrome CYP11A1 (P450scc)", "assay": "SPR; Biacore 3000; about 400 RU Ad coupled by EDC/NHS to a CM5 chip; monomeric (Emulgen 913-monomerized) CYP11A1 injected at 1-100 nM; 50 mM potassium phosphate pH 7.4 with 1% Emulgen 913; 1:1 Langmuir model", "conditions": "both partners purified"}}}
{"binder": "B1", "values": [{"measurement": "Kd", "setting": "[1]", "value": "210 ± 20", "unit": "nM"}, {"measurement": "koff", "setting": "[1]", "value": "0.09 ± 0.009", "unit": "s⁻¹"}, {"measurement": "kon", "setting": "[1]", "value": 420000, "unit": "M⁻¹ s⁻¹"}, {"measurement": "Kd", "setting": "[2]", "value": "170 ± 15", "unit": "nM"}, {"measurement": "koff", "setting": "[2]", "value": "0.05 ± 0.005", "unit": "s⁻¹"}, {"measurement": "kon", "setting": "[2]", "value": 290000, "unit": "M⁻¹ s⁻¹"}]}
